As usually defined, the Km is the substrate concentration at which the rate is half of its maximum. For orientation: kcat means the number of substrate molecules converted per active site and unit of time at saturation. Broadly, the kcat/Km is the second-order rate constant that governs catalysis at low substrate concentration. The term stoichiometry N denotes a count of units in the complex or per binding partner.

These results are taken from article PMC5486021, “Biochemical and Computational Insights on a Novel Acid-Resistant and Thermal-Stable Glucose 1-Dehydrogenase” (International Journal of Molecular Sciences, 2017).

For data set [1], the system named is T1, NC(=O)c1ccc[n+]([C@@H]2O[C@H](COP(=O)(O)OP(=O)(O)OC[C@H]3O[C@@H](n4cnc5c(N)ncnc54)[C@H](O)[C@@H]3O)[C@@H](O)[C@H]2O)c1.
T1 construct: full length, 261 residues (28 kDa predicted, 30 kDa SDS-PAGE, 120 kDa native), pET28a (NdeI/BamHI) in E. coli BL21(DE3), Ni-NTA purified, His tag removal not mentioned; N-terminus from primer MYSDLA
As to the kind of experiment: purified protein. It is filed as biochemical, Bacillus sp. ZJ. As to conditions: 100 mM sodium phosphate pH 8.0, 25 °C, glucose given as 200 µM (standard assay 200 mM), NAD 0.01-0.2 mM, kcat per subunit, varied: cofactor.

The test system of data set [2] is T2, NC(=O)c1ccc[n+]([C@@H]2O[C@H](COP(=O)(O)OP(=O)(O)OC[C@H]3O[C@@H](n4cnc5c(N)ncnc54)[C@H](OP(=O)(O)O)[C@@H]3O)[C@@H](O)[C@H]2O)c1.
T2 construct: full length, 261 residues (28 kDa predicted, 30 kDa SDS-PAGE, 120 kDa native), pET28a (NdeI/BamHI) in E. coli BL21(DE3), Ni-NTA purified, His tag removal not mentioned; N-terminus from primer MYSDLA
As to the kind of experiment: purified protein. It is filed as biochemical, Bacillus sp. ZJ. The conditions noted are these: 100 mM sodium phosphate pH 8.0, 25 °C, glucose given as 200 µM (standard assay 200 mM), NADP 0.01-0.2 mM, kcat per subunit, varied: cofactor.

The target of data set [3] is NAD(P)-dependent glucose 1-dehydrogenase from Bacillus sp. ZJ (Bacillus sp. ZJ). As to the kind of experiment: SEC; gel filtration on a Zorbax Bio-series GF-450 column; standards lysozyme (14.3 kDa), chicken ovalbumin (45 kDa), bovine serum albumin fraction V (67 kDa), goat IgG (150 kDa); native mass estimated 120 kDa against 30 kDa on SDS-PAGE.
The target of the next data set is T3, BzGDH (Bacillus sp. (in: firmicutes), UniProt A0A068FPP9).
T3 construct: full length, 261 residues (28 kDa predicted, 30 kDa SDS-PAGE, 120 kDa native), pET28a (NdeI/BamHI) in E. coli BL21(DE3), Ni-NTA purified, His tag removal not mentioned; N-terminus from primer MYSDLA
Description: NADH absorbance at […] nm, nonlinear Michaelis-Menten fit. It is filed as biochemical, Bacillus sp. ZJ. The conditions noted are these: 100 mM sodium phosphate pH 8.0, 25 °C; 1 mM NAD; glucose 1-200 mM; kcat per subunit.

With BzGDH (Bacillus sp. (in: firmicutes)), in data set [1], the Km is on record as 0.072 ± 0.009 mM, the kcat amounted to 84.5 ± 2.17 s⁻¹ and the specificity constant (kcat/Km) came to 1.17e+06 M⁻¹ s⁻¹. Besides, in data set [2], the Km came to 0.404 ± 0.088 mM, the kcat turned out to be 74 ± 2.68 s⁻¹ and the specificity constant (kcat/Km) stood at 183000 M⁻¹ s⁻¹.
On to “NAD(P)-dependent glucose 1-dehydrogenase from Bacillus sp. ZJ (enzyme)”, for which the stoichiometry N in data set [3] was 4.
Turning to `OC[C@H]1OC(O)[C@H](O)[C@@H](O)[C@@H]1O` (stereo partly drawn) [D-glucose], the Km at BzGDH came to 17.1 ± 0.946 mM.
